Target: integrin beta1 (SinoBiological 10587-H08H1) (UniProt P05556 21-728)
Assay: fluorescence polarization

Chain of integrin beta1 (SinoBiological 10587-H08H1) (P05556 21-728): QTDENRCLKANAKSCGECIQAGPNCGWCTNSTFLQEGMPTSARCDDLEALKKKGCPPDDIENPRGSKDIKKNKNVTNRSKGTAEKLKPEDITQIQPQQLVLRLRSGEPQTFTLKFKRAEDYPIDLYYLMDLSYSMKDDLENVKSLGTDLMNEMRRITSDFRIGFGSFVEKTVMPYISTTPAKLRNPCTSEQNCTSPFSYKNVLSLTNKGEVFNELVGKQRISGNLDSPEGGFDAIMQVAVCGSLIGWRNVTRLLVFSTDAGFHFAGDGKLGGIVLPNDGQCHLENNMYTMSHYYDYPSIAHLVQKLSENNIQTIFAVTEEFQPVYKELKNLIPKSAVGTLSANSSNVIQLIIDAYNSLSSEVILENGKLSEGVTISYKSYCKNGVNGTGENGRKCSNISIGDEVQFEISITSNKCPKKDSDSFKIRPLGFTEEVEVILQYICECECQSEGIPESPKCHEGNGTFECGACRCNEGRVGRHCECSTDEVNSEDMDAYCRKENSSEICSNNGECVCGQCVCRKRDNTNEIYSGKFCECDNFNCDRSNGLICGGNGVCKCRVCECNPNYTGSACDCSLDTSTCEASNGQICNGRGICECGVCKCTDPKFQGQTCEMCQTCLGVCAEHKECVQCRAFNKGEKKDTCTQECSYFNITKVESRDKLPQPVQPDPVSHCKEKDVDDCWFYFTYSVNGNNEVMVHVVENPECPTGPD

B1: FAM-GreenB1 (ssDNA)
DNA: ATCCAGAGTGACGCAGCATGGGGGTAGTGGTGGTTAGGAGTGGAGGCGAGGAGAGCGGTGGACACGGTGGCTTAGT
Kd: 7 nM

Source: paper doi:10.1101/2022.07.28.501822
